US7067277B1, “Chimeric G proteins and uses thereof” (H. Lundbeck A/S, priority 1999, dated 2006)

Legend:
h D1 = target: T1, h D1 (Homo sapiens, UniProt P21728); assay: Calcium mobilization (FLIPR, Fluo-3) in transfected COS-7 cells; type: cell-based; conditions: h D1 + chimera in COS-7; agonist DA, max 100 μM
T1 construct: expressed in transfected cells; host or cells: COS-7
Experimental: (§1) COS-7 cells were cultured in 225 cm^2 flasks in Dulbecco's Modified Eagle Medium (DMEM) with supplements (10% bovine calf serum, 4 mM glutamine, 100 units/ml penicillin and 100 μg/ml streptomycin) at 37° C., 5% CO2. Stock plates of COS-7 cells were trypsinized and split 1:6 every 3–4 days.
For evaluating the function of a single chimeric G protein, the standard cDNA transfection ratio was 1:1 (10 μg GPCR cDNA and 10 μg chimeric G protein cDNA). For evaluating the function of a mixture of chimeric G proteins, the standard cDNA transfection ratio was 8:1:1 (16 μg GPCR cDNA, 2 μg Gαq/z cDNA, 2 μg Gαq/s cDNA).
Twenty four hours after transient transfection, COS-7 cells were seeded into 96-well black wall microtiter plates coated with poly-D-lysine for assay the following day. […] After excess dye was discarded, cells were washed in assay buffer and layered with a final volume equal to 100 μl/well. Basal fluorescence was monitored in a fluorometric imaging plate reader (FLIPR™, Molecular Devices) with an excitation wavelength of 488 nm and an emission range of 500 to 560 nm. Laser excitation energy was adjusted so that basal fluorescence readings were approximately 10,000 relative fluorescent units. Cells were stimulated with agonists diluted in assay buffer (50 μl), and relative fluorescent units were measured at defined intervals (exposure=0.4 sec) over a 3 min period at room temperature. Maximum change in fluorescence was calculated for each well. Concentration-response curves derived from the maximum change in fluorescence were analyzed by nonlinear regression (Hill equation).

h D5 = h D5 (Homo sapiens, UniProt P21918); assay: as above; type: cell-based; conditions: h D5 + chimera in COS-7; agonist DA, max 100 μM
Experimental: as §1
(§2) GPCR and chimeric G protein cDNAs were transiently transfected into COS-7 cells in 150 cm^2 flasks by the DEAE-dextran method (Cullen, 1987), using a total of 20 μg of DNA/˜7×10^6 cells. For evaluating the function of a single chimeric G protein, the standard cDNA transfection ratio was 1:1 (10 μg GPCR cDNA and 10 μg chimeric G protein cDNA). For evaluating the function of a mixture of chimeric G proteins, the standard cDNA transfection ratio was 8:1:1 (16 μg GPCR cDNA, 2 μg Gαq/z cDNA, 2 μg Gαq/s cDNA).
(§3) Twenty four hours after transient transfection, COS-7 cells were seeded into 96-well black wall microtiter plates coated with poly-D-lysine for assay the following day. Just prior to assay, culture medium was aspirated and cells were dye-loaded with 4 μM Fluo-3/0.01% pluronic acid in assay buffer composed of Hank's Balanced Salt Solution (138 mM NaCl, 5 mM KCl, 1.3 mM CaCl2, 0.5 mM MgCl2, 0.4 mM MgSO4, 0.3 mM KH2PO4, 0.3 mM Na2HPO4, 5.6 mM glucose) plus 20 mM HEPES (pH 7.4), 0.1% BSA and 2.5 mM probenicid (100 μl/well) for 1 hour in 5% CO2 at 37° C. After excess dye was discarded, cells were washed in assay buffer and layered with a final volume equal to 100 μl/well. Basal fluorescence was monitored in a fluorometric imaging plate reader (FLIPR™, Molecular Devices) with an excitation wavelength of 488 nm and an emission range of 500 to 560 nm. Laser excitation energy was adjusted so that basal fluorescence readings were approximately 10,000 relative fluorescent units. Cells were stimulated with agonists diluted in assay buffer (50 μl), and relative fluorescent units were measured at defined intervals (exposure=0.4 sec) over a 3 min period at room temperature. Maximum change in fluorescence was calculated for each well. Concentration-response curves derived from the maximum change in fluorescence were analyzed by nonlinear regression (Hill equation).

h 5HT7 = h 5HT7 (Homo sapiens, UniProt P34969); assay: as above; type: cell-based; conditions: h 5HT7 + chimera in COS-7; agonist 5HT, max 100 μM
Experimental: as §1, §2, §3

h β2 adr = h β2 adr (Homo sapiens, UniProt P07550); assay: as above; type: cell-based; conditions: h β2 adr + chimera in COS-7; agonist NE, max 100 μM
Experimental: as §1, §2, §3

h 5HT6 = h 5HT6 (Homo sapiens, UniProt P50406); assay: as above; type: cell-based; conditions: h 5HT6 + chimera in COS-7; agonist 5HT, max 100 μM
Experimental: as §1, §2, §3

h 5HT4 = h 5HT4 (Homo sapiens, UniProt Q13639); assay: as above; type: cell-based; conditions: h 5HT4 + chimera in COS-7; agonist 5HT, max 100 μM
Experimental: as §1, §2, §3

h GLP-1 = h GLP-1 (Homo sapiens, UniProt P43220); assay: as above; type: cell-based; conditions: h GLP-1 + chimera in COS-7; agonist GLP-1, max 10 μM
Experimental: as §1, §2, §3

[1] = test system: panel of 7 Gαs-coupling receptors; assay: Detection rate in COS-7 calcium mobilization over Gαs-coupling GPCR; type: cell-based, human; conditions: COS-7, stimulated with appropriate agonists
Experimental: as §1
as §2, with “For evaluating the function of a mixture of chimeric G proteins, the standard cDNA transfection ratio was 8:1:1 (16 μg GPCR cDNA, 2 μg Gαq/z cDNA, 2 μg Gαq/s cDNA).” left out
Twenty four hours after transient transfection, COS-7 cells were seeded into 96-well black wall microtiter plates coated with poly-D-lysine for assay the following day. […] Basal fluorescence was monitored in a fluorometric imaging plate reader (FLIPR™, Molecular Devices) with an excitation wavelength of 488 nm and an emission range of 500 to 560 nm. Laser excitation energy was adjusted so that basal fluorescence readings were approximately 10,000 relative fluorescent units. Cells were stimulated with agonists diluted in assay buffer (50 μl), and relative fluorescent units were measured at defined intervals (exposure=0.4 sec) over a 3 min period at room temperature. Maximum change in fluorescence was calculated for each well. […]

T1 sequence (P21728 whole entry): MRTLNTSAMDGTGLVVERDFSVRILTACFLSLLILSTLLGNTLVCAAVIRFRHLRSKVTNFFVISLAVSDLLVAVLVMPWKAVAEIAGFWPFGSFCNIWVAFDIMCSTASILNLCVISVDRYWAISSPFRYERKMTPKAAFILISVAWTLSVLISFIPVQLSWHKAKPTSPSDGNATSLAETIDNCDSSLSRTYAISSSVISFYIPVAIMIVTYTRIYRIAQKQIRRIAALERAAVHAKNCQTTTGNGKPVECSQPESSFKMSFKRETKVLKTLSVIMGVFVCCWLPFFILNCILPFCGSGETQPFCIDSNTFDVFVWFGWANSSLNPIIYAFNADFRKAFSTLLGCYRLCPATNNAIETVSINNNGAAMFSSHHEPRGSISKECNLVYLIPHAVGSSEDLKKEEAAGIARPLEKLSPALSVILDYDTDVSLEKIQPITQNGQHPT
Sequence of h D5 (P21918 whole entry): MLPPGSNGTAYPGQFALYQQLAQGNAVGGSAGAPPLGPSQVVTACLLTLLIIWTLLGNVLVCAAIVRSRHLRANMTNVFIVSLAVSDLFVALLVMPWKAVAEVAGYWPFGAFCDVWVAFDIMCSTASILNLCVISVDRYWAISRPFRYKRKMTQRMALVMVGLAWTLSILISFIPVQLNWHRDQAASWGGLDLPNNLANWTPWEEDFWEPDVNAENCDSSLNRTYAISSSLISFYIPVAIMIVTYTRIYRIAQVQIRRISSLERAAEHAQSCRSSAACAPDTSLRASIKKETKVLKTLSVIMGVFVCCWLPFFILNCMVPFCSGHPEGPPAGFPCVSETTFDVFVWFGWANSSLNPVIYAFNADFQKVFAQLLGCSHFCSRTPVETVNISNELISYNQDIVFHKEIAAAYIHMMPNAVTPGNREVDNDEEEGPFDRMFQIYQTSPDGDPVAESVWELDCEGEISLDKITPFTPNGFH
Sequence of h 5HT6 (P50406 whole entry): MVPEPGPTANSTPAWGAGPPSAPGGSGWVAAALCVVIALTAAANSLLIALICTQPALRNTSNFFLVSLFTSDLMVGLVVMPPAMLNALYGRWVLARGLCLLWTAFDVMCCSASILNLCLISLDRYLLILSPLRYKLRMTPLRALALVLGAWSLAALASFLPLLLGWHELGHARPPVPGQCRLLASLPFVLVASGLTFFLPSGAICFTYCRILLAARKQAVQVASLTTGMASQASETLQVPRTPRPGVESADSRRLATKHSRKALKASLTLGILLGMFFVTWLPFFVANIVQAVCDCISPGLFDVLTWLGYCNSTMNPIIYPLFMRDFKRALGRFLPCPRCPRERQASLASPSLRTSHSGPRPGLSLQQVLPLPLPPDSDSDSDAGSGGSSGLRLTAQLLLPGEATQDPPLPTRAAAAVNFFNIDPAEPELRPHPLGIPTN
Sequence of h 5HT4 (Q13639 whole entry): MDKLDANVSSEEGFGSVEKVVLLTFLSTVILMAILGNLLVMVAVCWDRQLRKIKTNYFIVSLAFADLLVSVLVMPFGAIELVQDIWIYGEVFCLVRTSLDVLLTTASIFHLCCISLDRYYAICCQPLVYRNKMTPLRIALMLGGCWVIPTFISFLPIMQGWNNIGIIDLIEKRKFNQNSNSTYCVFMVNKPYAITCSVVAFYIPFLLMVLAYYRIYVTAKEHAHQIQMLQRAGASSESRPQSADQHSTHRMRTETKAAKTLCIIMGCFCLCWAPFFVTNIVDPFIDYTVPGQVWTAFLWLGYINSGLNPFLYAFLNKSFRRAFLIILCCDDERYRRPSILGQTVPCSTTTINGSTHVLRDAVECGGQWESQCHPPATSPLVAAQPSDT
Sequence of h GLP-1 (P43220 24-463): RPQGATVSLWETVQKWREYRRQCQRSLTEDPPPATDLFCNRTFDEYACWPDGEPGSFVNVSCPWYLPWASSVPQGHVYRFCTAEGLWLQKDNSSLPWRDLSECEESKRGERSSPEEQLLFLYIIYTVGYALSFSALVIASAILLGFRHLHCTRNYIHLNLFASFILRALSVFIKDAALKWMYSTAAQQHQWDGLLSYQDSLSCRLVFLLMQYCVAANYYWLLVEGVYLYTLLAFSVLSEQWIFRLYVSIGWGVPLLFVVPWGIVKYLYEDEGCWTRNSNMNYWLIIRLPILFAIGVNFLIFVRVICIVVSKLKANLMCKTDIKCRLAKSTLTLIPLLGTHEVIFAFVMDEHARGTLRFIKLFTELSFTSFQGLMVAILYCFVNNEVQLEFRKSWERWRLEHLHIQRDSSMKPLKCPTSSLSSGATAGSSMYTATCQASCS
Sequence of h 5HT7 (P34969 whole entry): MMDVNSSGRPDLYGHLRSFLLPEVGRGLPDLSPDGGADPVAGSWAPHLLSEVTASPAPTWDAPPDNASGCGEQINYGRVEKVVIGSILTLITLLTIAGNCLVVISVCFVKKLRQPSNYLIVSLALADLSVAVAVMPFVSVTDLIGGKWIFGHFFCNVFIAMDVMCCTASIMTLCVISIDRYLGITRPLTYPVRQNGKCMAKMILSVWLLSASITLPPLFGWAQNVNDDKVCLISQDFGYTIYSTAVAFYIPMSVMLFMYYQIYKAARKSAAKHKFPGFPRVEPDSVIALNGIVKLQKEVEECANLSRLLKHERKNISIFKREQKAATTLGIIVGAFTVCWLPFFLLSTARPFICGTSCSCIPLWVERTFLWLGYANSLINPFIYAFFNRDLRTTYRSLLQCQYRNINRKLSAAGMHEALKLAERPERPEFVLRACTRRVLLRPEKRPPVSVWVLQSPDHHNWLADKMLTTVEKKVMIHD

B1: cGαq/s9: C. elegans Gαq backbone with 9 C-terminal amino acids of Gαs (SEQ ID NO: 3) (protein)
chain: MACCLSEEAREQKRINQEIEKQLQRDKRNARRELKLLLLGTGESGKSTFIKQMRIIHGQGYSEEDKRAHIRLVYQNVFMAIQSMIRAMDTLDIKFGNESEELQEKAAVVREVDFESVTSFEEPYVSYIKELWEDSGIQECYDRRREYQLTDSAKYYLSDLRRLAVPDYLPTEQDILRVRVPTTGIIEYPFDLEQIIFRMVDVGGQRSERRKWIHCFENVTSIMFLVALSEYDQVLVECDNENRMEESKALFRTIITYPWFTNSSVILFLNKKDLLEEKILYSHLADYFPEYDGPPRDPIAAREFILKMFVDLNPDADKIIYSHFTCATDTENIRFVFAAVKDTILQMHLRQYELL
modifications: C. elegans
- MAXIMAL SIGNAL (FLUORESCENCE UNITS) (h D1): 8692 fluorescence units
- MAXIMAL SIGNAL (FLUORESCENCE UNITS) (h D5): 1870 fluorescence units
- MAXIMAL SIGNAL (FLUORESCENCE UNITS) (h 5HT7): 387 fluorescence units
- MAXIMAL SIGNAL (FLUORESCENCE UNITS) (h β2 adr): 3106 fluorescence units
- MAXIMAL SIGNAL (FLUORESCENCE UNITS) (h 5HT6): 1639 fluorescence units
- MAXIMAL SIGNAL (FLUORESCENCE UNITS) (h 5HT4): 1701 fluorescence units
- MAXIMAL SIGNAL (FLUORESCENCE UNITS) (h GLP-1): 2461 fluorescence units
- Gαs-coupling receptors generating positive responses (>500 fluorescence units) / receptors tested [1]: 6/7
- percent of Gαs-coupling receptors generating positive responses (>500 fluorescence units) [1]: 81%
